Measured values taken from US6015560, “Antibody recognizing endothelial cell ligand for leukocyte CR3” (The Rockfeller University, dated 2000).

Key:
[1] = molecular target: T1, integrin complement receptor 3 (CR3) on human leukocytes (human, UniProt P11215); test: cell-based or functional assay
[2] = molecular target: T1, integrin complement receptor 3 (CR3) on …; test: macrophages spread on peptide-coated wells; residual CD11b/CD18 detected with C3bi-coated erythrocytes

| Binder | inhibition of adherence of human neutrophils to cultured endothelial cells [1] [%] | binding result [2] |
| --- | --- | --- |
| RGDPHQGVLAQGDIIMDAKGGTLLLRNDALTENGTVTISADSAVL [FHA peptide C] | 62 | – |
| RQDFFTPGSVVVRAQGNVTVGRGDPHQGVLAQGDIIMDAKGGTLL [FHA peptide B] | 29 | – |
| IGALKAGAVEAASPRRAARRALRQDFFTPGSVVVRAQGNYTVGRGD [FHA peptide A] | < 15 | – |
| LEHSTIESKISQSVLAAKGDKGKPAVSVKVAKKLFLNGTLRAVND [FHA peptide D] | < 15 | – |
| AKKLFLNGTLRAVNDNNETMSGRQIDVVDGRPQITDAVTGEARKD [FHA peptide E] | < 15 | – |
| RPQITDAVTGEARKDESVVSDAALVADGGPIVVEAGELVSHAGGI [FHA peptide F] | < 15 | – |
| FHA peptide G (peptide) peptide: IVVEAGELVSHAGGIGNGRNKENGASVTVRTTGNLVNKGYISAGKQGVLEVGGAL | < 15 | – |
| RADPHQGVLAQGDIIMDAKG [FHA peptide Cb] | – | no binding (tested: wells coated with 0.5 mM peptide) |
| AADPHQGVLAQGDIIMDAKG [FHA peptide Cc] | – | no binding (tested: wells coated with 0.5 mM peptide) |
| GTLLLRNDALTENGTVTISA [FHA peptide Cd] | – | no binding (tested: wells coated with 0.5 mM peptide) |
